# Reference: PMC9972942, “E6-Encoded by Cancer-Causing Human Papillomavirus Interacts with Aurora Kinase A To Promote HPV-Mediated Carcinogenesis” (Journal of Virology, 2023)
# T1: GST-tagged HPV16 E7 (human papillomavirus type 16, UniProt P03129 1-98)
# T1 construct: E7 oncoprotein of human papillomavirus type 16; also called GST-16 E7; HPVE7; source: E. coli, purified GST fusion protein
# T1 sequence: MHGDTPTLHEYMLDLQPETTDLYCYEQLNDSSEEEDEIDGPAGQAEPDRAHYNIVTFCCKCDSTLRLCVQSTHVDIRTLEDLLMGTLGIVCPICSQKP
# T2: GST-tagged HPV11 E6 (human papillomavirus type 11, UniProt P04019 1-150)
# T2 construct: E6 protein of human papillomavirus type 11 (low-risk type); construct pGEX2T:HPV-11 E6; also called GST-11E6; lr-HPV11E6; source: E. coli, IPTG-induced, purified on glutathione-conjugated agarose
# T2 sequence: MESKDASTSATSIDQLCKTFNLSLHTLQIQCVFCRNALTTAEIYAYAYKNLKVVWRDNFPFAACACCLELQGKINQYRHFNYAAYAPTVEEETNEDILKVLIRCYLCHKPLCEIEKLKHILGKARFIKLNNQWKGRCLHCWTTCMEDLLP
# T3: GST-tagged HPV58 E6 (human papillomavirus type 58, UniProt P26555 1-149)
# T3 construct: E6 oncoprotein of human papillomavirus type 58; construct pGEX2T:HPV-58 E6; also called GST-58E6; source: E. coli, IPTG-induced, purified on glutathione-conjugated agarose
# T3 sequence: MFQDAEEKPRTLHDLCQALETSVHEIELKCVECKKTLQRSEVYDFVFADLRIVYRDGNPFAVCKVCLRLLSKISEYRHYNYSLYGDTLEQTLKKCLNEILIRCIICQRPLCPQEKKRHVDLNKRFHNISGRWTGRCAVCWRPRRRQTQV
# B1: Aurora kinase A (HA-AurA, in vitro translated) (enzyme, UniProt O14965 1-403, looked up)
# chain: MDRSKENCISGPVKATAPVGGPKRVLVTQQFPCQNPLPVNSGQAQRVLCPSNSSQRIPLQAQKLVSSHKPVQNQKQKQLQATSVPHPVSRPLNNTQKSKQPLPSAPENNPEEELASKQKNEESKKRQWALEDFEIGRPLGKGKFGNVYLAREKQSKFILALKVLFKAQLEKAGVEHQLRREVEIQSHLRHPNILRLYGYFHDATRVYLILEYAPLGTVYRELQKLSKFDEQRTATYITELANALSYCHSKRVIHRDIKPENLLLGSAGELKIADFGWSVHAPSSRRTTLCGTLDYLPPEMIEGRMHDEKVDLWSLGVLCYEFLVGKPPFEANTYQETYKRISRVEFTFPDFVTEGARDLISRLLKHNPSQRPMLREVLEHPWITANSSKPSNCQNKESASKQS
# notes: Aurora kinase A (AurA); plasmid pcDNA3.1:HA-AurA; the functional rows are written on this molecule; source: in vitro translated (TNT Coupled Reticulocyte Lysate System, Promega)
# Tests used:
# [1] = target: GST-tagged HPV16 E6 with its PDZ binding motif deleted (human papillomavirus type 16); experiment: pull-down; purified GST fusion proteins on glutathione-conjugated agarose incubated with equal amounts of in vitro-translated HA-AurA, 1 h at room temperature; washed 3 times with PBS containing 0.1% Tween 20; bound AurA detected by Western blotting with an HA-specific antibody; bands quantified with ImageJ relative to GST-16E6 (n = 3)
# [2] = target: GST-tagged HPV16 E6 with its PDZ binding motif deleted (human papillomavirus type 16)
# [3] = target: T4, GST-tagged HPV16 E6 S150A (human papillomavirus type 16, UniProt P03126 1-158, S150A); experiment: cell-based or functional assay
# [4] = target: T5, GST-tagged HPV16 E6 S145A (human papillomavirus type 16, UniProt P03126 1-158, S145A); experiment: cell-based or functional assay
# [5] = target: GST-tagged HPV16 E6 wild type (human papillomavirus type 16, UniProt P03126 1-158); experiment: cell-based or functional assay
# GST-tagged HPV16 E6 S89A [6] = target: T6, GST-tagged HPV16 E6 S89A (human papillomavirus type 16, UniProt P03126 1-158, S89A); experiment: cell-based or functional assay
# [7] = target: T7, GST-tagged HPV16 E6 T140A (human papillomavirus type 16, UniProt P03126 1-158, T140A); experiment: cell-based or functional assay
# GST-tagged HPV16 E7 = target: T1, GST-tagged HPV16 E7; experiment: pull-down; purified GST fusion proteins on glutathione-conjugated agarose incubated with equal amounts of in vitro-translated HA-AurA, 1 h at room temperature; washed 3 times with PBS containing 0.1% Tween 20; bound AurA detected by Western blotting with an HA-specific antibody; bands quantified with ImageJ relative to GST-16E6 (n = 3); settings: one partner purified
# GST-tagged HPV11 E6 = target: T2, GST-tagged HPV11 E6; experiment: as above; settings: one partner purified
# [8] = target: T4, GST-tagged HPV16 E6 S150A; experiment: as above; settings: one partner purified
# [9] = target: T5, GST-tagged HPV16 E6 S145A; experiment: as above; settings: one partner purified
# GST-tagged HPV18 E6 = target: T8, GST-tagged HPV18 E6 (human papillomavirus type 18, UniProt P06463 1-158); experiment: as above; settings: one partner purified
# T8 construct: E6 oncoprotein of human papillomavirus type 18; construct pGEX2T:HPV-18 E6; also called GST-18E6; source: E. coli, IPTG-induced, purified on glutathione-conjugated agarose
# GST-tagged HPV16 E6 S89A [10] = target: T6, GST-tagged HPV16 E6 S89A; experiment: as above; settings: one partner purified
# GST-tagged HPV58 E6 = target: T3, GST-tagged HPV58 E6; experiment: as above; settings: one partner purified
# [11] = target: T7, GST-tagged HPV16 E6 T140A; experiment: as above; settings: one partner purified
Molecule,AurA bound relative to GST-16E6 (%) [1],"AurA kinase activity (ADP-Glo) of purified AurA in the presence of GST-E6 ΔPBM, relative to AurA with GST alone [2]","AurA kinase activity (ADP-Glo) of purified AurA in the presence of GST-E6 S150A, relative to AurA with GST alone [3]","AurA kinase activity (ADP-Glo) of purified AurA in the presence of GST-E6 S145A, relative to AurA with GST alone [4]","AurA kinase activity (ADP-Glo) of purified AurA in the presence of GST-E6, relative to AurA with GST alone [5]","AurA kinase activity (ADP-Glo) of purified AurA in the presence of GST-E6 S89A, relative to AurA with GST alone (GST-tagged HPV16 E6 S89A [6])","AurA kinase activity (ADP-Glo) of purified AurA in the presence of GST-E6 T140A, relative to AurA with GST alone [7]",AurA bound relative to GST-16E6 (%) (GST-tagged HPV16 E7),AurA bound relative to GST-16E6 (%) (GST-tagged HPV11 E6),AurA bound relative to GST-16E6 wild type (%) [8],AurA bound relative to GST-16E6 wild type (%) [9],AurA bound relative to GST-16E6 (%) (GST-tagged HPV18 E6),AurA bound relative to GST-16E6 wild type (%) (GST-tagged HPV16 E6 S89A [10]),AurA bound relative to GST-16E6 (%) (GST-tagged HPV58 E6),AurA bound relative to GST-16E6 wild type (%) [11]
"Aurora kinase A (HA-AurA, in vitro translated) (from UniProt O14965 1-403) (enzyme)",87%,0.85,,,,,,,,,,,,,
B1,,,0.68,0.68,0.85,0.65,0.61,37.3%,12%,56%,24%,102%,67.3%,158%,25.3%
